Test results taken from patent publication US9658208B2, “Methods and G proteins for screening and identifying ligands of G protein-coupled receptors” (Fred Hutchinson Cancer Research Center, priority 2011, dated 2017).
Entries after “also recorded” stand apart in the source; their conditions may differ.

Legend:
Assay type in all cases: cell-based
[1] = molecular target: T1, M2 muscarinic acetylcholine receptor (M2AchR) (Rattus norvegicus, UniProt P10980); test: CRE-SEAP reporter gene assay, coupling of Gαs-based chimeric G proteins with M2AchR (transient); settings: HEK-293 cells; 10 uM acetylcholine
T1 construct: expressed in transfected cells; host or cells: HEK-293
T1 sequence (P10980 1-466): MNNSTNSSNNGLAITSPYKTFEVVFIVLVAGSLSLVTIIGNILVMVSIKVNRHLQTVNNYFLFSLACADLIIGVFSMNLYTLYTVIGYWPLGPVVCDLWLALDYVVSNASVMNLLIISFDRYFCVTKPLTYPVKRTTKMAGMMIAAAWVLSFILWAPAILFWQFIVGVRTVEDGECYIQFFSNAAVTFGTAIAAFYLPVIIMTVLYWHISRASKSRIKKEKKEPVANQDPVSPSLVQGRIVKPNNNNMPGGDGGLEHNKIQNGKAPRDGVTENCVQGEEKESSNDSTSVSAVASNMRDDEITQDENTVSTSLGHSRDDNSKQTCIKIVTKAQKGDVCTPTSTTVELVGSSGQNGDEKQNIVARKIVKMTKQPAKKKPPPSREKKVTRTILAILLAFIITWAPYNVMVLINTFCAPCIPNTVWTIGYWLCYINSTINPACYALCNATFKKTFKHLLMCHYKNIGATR
Protocol: The constructs encoding chimeric G proteins were made by substituting C-terminal amino acids of Gαs (SEQ ID NO: 1) with the corresponding C-terminal amino acid sequences of other Gα subunits. A first set of Gαs-based chimeric G proteins was prepared by designing constructs encoding seven Gαs-Gαi chimeras in which the C-terminal 5, 11, 13, 28, 65, 84, or 131 amino acids of Gαs were substituted with the corresponding C-terminal amino acids from the […]. Briefly, HEK-293 cells were cotransfected with chimera constructs together with the CRE-SEAP reporter gene construct and a cDNA encoding the M2 muscarinic acetylcholine receptor (M2AchR), a GPCR that couples to Gαo but not to Gαs and inhibits cAMP production. The transfected cells were cultured in the presence or absence of acetylcholine and then assayed for SEAP activity.
A series of chimeric constructs were prepared in which the final 13 C-terminal amino acids of the Gαs subunit were substituted with the final 13 C-terminal amino acids from Gαo, Gαz, Gαt, Gαq, or Gα15 subunits. Also tested were the Gαs-Gαi-13 and a chimera containing the last 5 C-terminal amino acids of Gαk (Gαs-Gαk-5 (SEQ ID NO: 2)). These chimeric constructs were tested for coupling with M2AchR. […] The Gαs-Gαo-13 (SEQ ID NO: […]) and Gαs-Gα15-13 (SEQ ID NO: 7) allowed approximately 2-fold increases in SEAP activity.
(§1) Chimeric G protein cloning: An insert containing rat Gαs cDNA was cut out using the restriction enzymes SaII and HinDIII, and ligated into pcDNA3.1(−) cut with XhoI and HinDIII. The chimeric G proteins with the desired C-terminal amino acid substitutions were prepared by PCR using Gαs as a template. More specifically, Gαs was PCR amplified between an internal EcoRI site and the stop codon, with a 3′ HinDIII placed immediately after the stop codon. A different 3′ oligonucleotide was used for each Gαs chimera and contained a 39 bp sequence that encoded the substituted amino acids at the C-terminus selected from the donor Gα subunit.
M2AchR GPCR cloning: Rat M2AchR receptor was cloned by PCR from cDNA templates (ATCC) and ligated into pcDNA 3.1(−) for expression in mammalian cells.
CRE-SEAP Reporter Gene Assay: 0.5×10^5 HEK-293 cells (ATCC) were seeded into each well of a 96 well plate 24 hours prior to transfection. cDNAs encoding M2AchR, SEAP reporters (Mercury Pathway Profiling System, BD Biosciences), and G protein chimeras were transfected into HEK-293 cells using lipofectamine reagent (Invitrogen) according to the manufacturer's protocols. […]
Following transfection, the cells were maintained for 48 hours in 200 ul serum free media containing 10 uM acetylcholine (Sigma). […] Fluorescence was then measured using a CytoFluor 4000 multi well plate reader (Applied Biosystems).

[2] = test system: nine GPCRs that do not bind to Gαs (serotonin 1b, neuropeptide Y1, leukotriene B4, dopamine D4, GNRH, UDP, calcium-sensing, T1R2/T1R3); test: CRE-SEAP reporter gene assay, coupling of chimeric G proteins with a variety of GPCRs; settings: HEK-293 cells, GPCR ligand 48 hours
Source text: (§2) The GPCRs examined were those that couple with Gαi/Gαo subunits (serotonin 1b, neuropeptide Y1, leukotriene B4, and dopamine D4), Gαq (GNRH, UDP, and calcium-sensing receptors), and the orphan mammalian sweet taste receptor complex (T1R2 and T1R3) with unknown coupling preference. The Gαs-based chimeric G proteins examined in this example were Gαs-Gαi-5, Gαs-Gαt-13 (SEQ ID NO: 3), Gαs-Gαo-13 (SEQ ID NO: 4), Gαs-Gαi-13 (SEQ ID NO: 5), Gαs-Gαz-6 (SEQ ID NO: 18), Gαs-Gα15-13 (SEQ ID NO: 7), Gαs-Gαk-5 (SEQ ID NO: 2), and Gαs-Gαq-13 (SEQ ID NO: 8). The chimeric G protein constructs were prepared as described herein. For the coupling assay, HEK-293 cells were cotransfected with each of the Gαs-based chimeric G protein constructs of interest together with the CRE-SEAP reporter gene construct and a cDNA encoding the GPCR to be tested. The transfected cells were cultured in the presence or absence of a GPCR ligand and then assayed for SEAP activity.
as §1, with “substitutions from the Gαi, Gαt, Gαo, Gαz, Gα15, Gαk, and Gαq” for “substitutions”
GPCR cloning: Mouse 5-HT1B, mouse dopamine D4, human GNRH, and human neuropeptide Y1 receptors were cloned by PCR from cDNA templates (ATCC) and ligated into pcDNA 3.1(−) (Invitrogen) for expression in mammalian cells. […]
(§3) Following transfection, the cells were maintained for 48 hours in 200 ul serum free media containing GPCR ligand. […] Fluorescence was then measured using a CytoFluor 4000 multi well plate reader (Applied Biosystems).

dopamine D4 receptor = molecular target: T2, dopamine D4 receptor (Mus musculus, UniProt P51436); test: CRE-SEAP reporter gene assay, coupling with dopamine D4; settings: HEK-293 cells, 1 uM dopamine
T2 construct: expressed in transfected cells; host or cells: HEK-293
T2 sequence (P51436 1-387): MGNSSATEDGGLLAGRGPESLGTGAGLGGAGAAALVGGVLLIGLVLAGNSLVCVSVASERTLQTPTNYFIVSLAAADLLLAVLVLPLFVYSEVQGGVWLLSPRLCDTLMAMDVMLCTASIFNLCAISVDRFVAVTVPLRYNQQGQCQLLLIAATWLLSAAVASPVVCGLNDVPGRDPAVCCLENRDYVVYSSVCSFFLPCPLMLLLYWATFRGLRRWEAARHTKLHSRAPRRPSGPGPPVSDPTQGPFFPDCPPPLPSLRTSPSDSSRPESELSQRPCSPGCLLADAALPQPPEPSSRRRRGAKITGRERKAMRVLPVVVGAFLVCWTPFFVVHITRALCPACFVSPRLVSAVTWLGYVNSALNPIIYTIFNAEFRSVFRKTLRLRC
Source text: as §2
Chimeric G protein cloning: An insert containing rat Gαs cDNA was cut out using the restriction enzymes SaII and HinDIII, and ligated into pcDNA3.1(−) cut with XhoI and HinDIII. […]
as §3

| Molecule | ligand induced increases in SEAP activity mediated by M2AchR (in words) [1] | GPCRs tested that coupled to the chimera [2] | coupling with dopamine D4 receptor (dopamine D4 receptor) |
| --- | --- | --- | --- |
| Gαs-Gαi-13: Gαs-based chimeric G protein, C-terminal 13 amino acids of Gαs substituted with those of Gαi (protein, Chimeric protein, Gαs-based chimeric G protein, C-terminal 13 amino acids of Gαs substituted with those of Gαi) MGCLGNSKTEDQRNEEKAQREANKKIEKQLQKDKQVYRATHRLLLLGAGESGKSTIVKQMRILHVNGFNGEGGEEDVPDYASNSDGEKATKVQDIKNNLKEAIETIVAAMSNLVPPVELANPENQFRVDYILSVMNVPNFDFPPEFYEHAKALWEDEGVRACYERSNEYQLIDCAQYFLDKIDVIKQADYVPSDQDLLRCRVLTSGIFETKFQVDKVNFHMFDVGGQRDERRKWIQCFNDVTAIIFVVASSSYNMVIREDNQTNRLQEALNLFKSIWNNRWLRTISVILFLNKQDLLAEKVLAGKSKIEDYFPEFARYTTPEDATPEPGEDPRVTRAKYFIRDEFLRISTASGDGRHYCYPHFTCAVDTENIRRVFNDCRDVIIKNNLKDCGLF | Particularly effective; also recorded: highest responses | seven of the nine |  |
| Gαs-Gαo-13: Gαs-based chimeric G protein, final 13 C-terminal amino acids substituted with those of Gαo (protein, Chimeric protein, Gαs-based chimeric G protein, final 13 C-terminal amino acids substituted with those of Gαo) MGCLGNSKTEDQRNEEKAQREANKKIEKQLQKDKQVYRATHRLLLLGAGESGKSTIVKQMRILHVNGFNGEGGEEDVPDYASNSDGEKATKVQDIKNNLKEAIETIVAAMSNLVPPVELANPENQFRVDYILSVMNVPNFDFPPEFYEHAKALWEDEGVRACYERSNEYQLIDCAQYFLDKIDVIKQADYVPSDQDLLRCRVLTSGIFETKFQVDKVNFHMFDVGGQRDERRKWIQCFNDVTAIIFVVASSSYNMVIREDNQTNRLQEALNLFKSIWNNRWLRTISVILFLNKQDLLAEKVLAGKSKIEDYFPEFARYTTPEDATPEPGEDPRVTRAKYFIRDEFLRISTASGDGRHYCYPHFTCAVDTENIRRVFNDCRDIIIANNLRGCGLY |  | seven of the nine | permitted a response |
